In assay [1] the target is Alexa 488 labeled DARPin 8F1. In words: fluorescence polarisation; fluorescence anisotropy; 500 nM Alexa 488 labeled DARPin constant, p63 isoform 0-10 µM; 50 mM Tris pH 8, 150 mM NaCl, 0.5 mM TCEP, 0.1 % Tween-20; the sheet says 20 °C, the methods 16 °C.
The target of assay [2] is Alexa 488 labeled DARPin A5. The assay is described as above.
For assay [3], the target named is Alexa 488 labeled DARPin C14. The description is as above.
Assay [4] addresses DARPin A5. Nature of the assay: ITC; target proteins titrated to constant concentrations of DARPin; 50 mM HEPES, pH 7.4, 150 mM NaCl, 0.5 mM TCEP; AB hetero-association model (SEDPHAT); temperatures not shown.
Assay [5] deals with DARPin A5. Nature of the assay: ITC; target protein titrated into a constant concentration of DARPin, 25 injections of 10 µl; 50 mM HEPES pH 7.4, 150 mM NaCl, 0.5 mM TCEP; 25 °C; AB hetero-association model (SEDPHAT).

B1: ΔNp63α (natural protein)
chain: MLYLENNAQTQFSEPQYTNLGLLNSMDQQIQNGSSSTSPYNTDHAQNSVTAPSPYAQPSSTFDALSPSPAIPSNTDYPGPHSFDVSFQQSSTAKSATWTYSTELKKLYCQIAKTCPIQIKVMTPPPQGAVIRAMPVYKKAEHVTEVVKRCPNHELSREFNEGQIAPPSHLIRVEGNSHAQYVEDPITGRQSVLVPYEPPQVGTEFTTVLYNFMCNSSCVGGMNRRPILIIVTLETRDGQVLGRRCFEARICACPGRDRKADEDSIRKQQVSDSTKNGDGTKRPFRQNTHGIQMTSIKKRRSPDDELLYLPVRGRETYEMLLKIKESLELMQYLPQHTIETYRQQQQQQHQHLLQKQTSIQSPSSYGNSSPPLNKMNSMNKLPSVSQLINPQQRNALTPTTIPDGMGANIPMMGTHMPMAGDMNGLSPTQALPPPLSMPSTSHCTPPPPYPTDCSIVSFLARLGCSSCLDYFTTQGLTTIYQIEHYSMDDLASLKIPEQFRHAIWKGILDHRQLHEFSSPSHLLRTPSSASTVSVGSSETRGERVIDAVRFTLRQTISFPPRDEWNDFNFDMDARRNKQQRIKEEGE
In the case of B1, the dissociation constant Kd worked out at 95.6 nM in assay [1], 67.9 nM in assay [2] and 202 nM in assay [3].

B2: p63 Sterile α-motif (SAM) domain (domain or fragment)
chain: PPYPTDCSIVSFLARLGCSSCLDYFTTQGLTTIYQIEHYSMDDLASLKIPEQFRHAIWKGILDHRQL
B2: the Kd in the assay with DARPin A5 [4] came to 16 nM. In the assay with DARPin A5 [5], the Ka amounted to 6.18e+07 M⁻¹.

(Values after publication PMC9751120.)
